Laboratory results reported in publication PMC9482650, “Quantitative fragmentomics allow affinity mapping of interactomes” (Nature Communications, 2022).

T1: DVL1, O14640
T1 sequence (O14640 246-333, limits assumed, looked up): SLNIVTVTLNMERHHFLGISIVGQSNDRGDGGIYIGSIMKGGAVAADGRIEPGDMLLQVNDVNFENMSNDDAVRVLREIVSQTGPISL

T2: PDZD11, Q5EBL8
T2 sequence (Q5EBL8 42-139, limits assumed, looked up): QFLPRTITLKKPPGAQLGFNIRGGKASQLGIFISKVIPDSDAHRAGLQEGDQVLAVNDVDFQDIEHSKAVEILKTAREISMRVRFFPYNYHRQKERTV

T3: SHANK2, Q9UPX8
T3 sequence (Q9UPX8 621-730, limits assumed, looked up): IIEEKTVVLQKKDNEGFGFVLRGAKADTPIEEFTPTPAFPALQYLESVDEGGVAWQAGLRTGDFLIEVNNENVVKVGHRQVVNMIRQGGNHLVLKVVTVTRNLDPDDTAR

T4: INTU, Q9ULD6
T4 sequence (Q9ULD6 180-273, limits assumed, looked up): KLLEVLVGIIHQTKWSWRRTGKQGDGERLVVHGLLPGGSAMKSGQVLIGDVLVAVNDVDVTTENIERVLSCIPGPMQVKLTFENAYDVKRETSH

T5: APBA3_2, O96018
T5 sequence (O96018 480-570, limits assumed, looked up): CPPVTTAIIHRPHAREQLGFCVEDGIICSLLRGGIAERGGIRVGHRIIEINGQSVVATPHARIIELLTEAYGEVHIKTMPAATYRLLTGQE

T6: PDZD4, Q76G19
T6 sequence (Q76G19 125-224, limits assumed, looked up): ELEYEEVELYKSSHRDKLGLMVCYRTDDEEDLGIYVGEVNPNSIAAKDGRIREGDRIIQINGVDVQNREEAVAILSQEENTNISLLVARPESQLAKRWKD

T7: PDZD2_6, O15018
T7 sequence (O15018 2745-2839, limits assumed, looked up): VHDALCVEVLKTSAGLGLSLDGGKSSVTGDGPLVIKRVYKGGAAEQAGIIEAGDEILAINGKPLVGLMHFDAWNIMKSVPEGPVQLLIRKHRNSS

T8: PARD6G, Q9BYG4
T8 sequence (Q9BYG4 153-261, limits assumed, looked up): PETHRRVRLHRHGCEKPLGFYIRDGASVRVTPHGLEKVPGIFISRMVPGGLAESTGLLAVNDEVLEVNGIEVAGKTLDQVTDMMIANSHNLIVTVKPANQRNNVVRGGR

T9: SYNPO2L, Q9H987
T9 sequence (Q9H987 1-98, limits assumed, looked up): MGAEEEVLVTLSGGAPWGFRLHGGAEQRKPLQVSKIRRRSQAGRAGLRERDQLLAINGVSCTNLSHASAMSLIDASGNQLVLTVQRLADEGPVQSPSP

T10: PDZD7_2, Q9H5P4
T10 sequence (Q9H5P4 205-303, limits assumed, looked up): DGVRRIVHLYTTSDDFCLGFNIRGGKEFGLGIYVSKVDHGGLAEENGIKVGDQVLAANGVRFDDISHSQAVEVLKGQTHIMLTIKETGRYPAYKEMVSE

T11: MAGI2_1, Q86UL8
T11 sequence (Q86UL8 12-111, limits assumed, looked up): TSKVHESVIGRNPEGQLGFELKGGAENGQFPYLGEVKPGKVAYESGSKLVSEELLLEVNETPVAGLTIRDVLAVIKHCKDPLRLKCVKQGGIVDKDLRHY

T12: NHERF1_1, O14745
T12 sequence (O14745 9-104, limits assumed, looked up): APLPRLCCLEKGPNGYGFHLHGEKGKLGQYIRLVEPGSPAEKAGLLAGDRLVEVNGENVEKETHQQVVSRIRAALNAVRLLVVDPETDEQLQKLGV

T13: MPDZ_2, O75970
T13 sequence (O75970 252-347, limits assumed, looked up): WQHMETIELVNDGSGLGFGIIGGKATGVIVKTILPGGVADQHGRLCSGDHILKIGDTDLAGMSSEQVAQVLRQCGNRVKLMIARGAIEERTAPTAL

B1: DGKK, Q5KSL6 (peptide)
chain: DPLTPSRSQL
B2: HPV51-E6, P26554 (peptide)
chain: RTRQRNETQV

How the values were obtained:
Experiment in all cases: holdup assay
Set-up in all cases: key: below the threshold = too weak to quantify, mostly under pKd 3.1 to 4
Details in all cases: plain residues with an end cap or a label only (N-terminal biotin on a linker: ttds)
DVL1, O14640 = target: T1, DVL1, O14640
O00560 = target: O00560
PDZD11, Q5EBL8 = target: T2, PDZD11, Q5EBL8
SHANK2, Q9UPX8 = target: T3, SHANK2, Q9UPX8
INTU, Q9ULD6 = target: T4, INTU, Q9ULD6
Q9P227 = target: Q9P227
APBA3_2, O96018 = target: T5, APBA3_2, O96018
Q8TEW0 = target: Q8TEW0
Q6ZWJ1 = target: Q6ZWJ1
PDZD4, Q76G19 = target: T6, PDZD4, Q76G19
O60759 = target: O60759
Q8IUC4 = target: Q8IUC4
PDZD2_6, O15018 = target: T7, PDZD2_6, O15018
PARD6G, Q9BYG4 = target: T8, PARD6G, Q9BYG4
O75970 = target: O75970
Q9ULJ8 = target: Q9ULJ8
SYNPO2L, Q9H987 = target: T9, SYNPO2L, Q9H987
PDZD7_2, Q9H5P4 = target: T10, PDZD7_2, Q9H5P4
PDZD9, Q8IXQ8 = target: PDZD9, Q8IXQ8
Chain of PDZD9, Q8IXQ8 (Q8IXQ8 23-120): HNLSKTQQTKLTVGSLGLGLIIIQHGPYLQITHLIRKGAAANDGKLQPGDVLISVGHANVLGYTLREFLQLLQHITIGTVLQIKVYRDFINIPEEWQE

MAGI2_1, Q86UL8 = target: T11, MAGI2_1, Q86UL8
AHNAK2, Q8IVF2 = target: AHNAK2, Q8IVF2
Chain of AHNAK2, Q8IVF2 (Q8IVF2 108-193): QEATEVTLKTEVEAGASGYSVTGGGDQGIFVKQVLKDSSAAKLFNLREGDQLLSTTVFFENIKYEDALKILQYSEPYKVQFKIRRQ

NHERF1_1, O14745 = target: T12, NHERF1_1, O14745
Q9C0E4 = target: Q9C0E4
LIMK1, P53667 = target: LIMK1, P53667
Chain of LIMK1, P53667 (P53667 155-268): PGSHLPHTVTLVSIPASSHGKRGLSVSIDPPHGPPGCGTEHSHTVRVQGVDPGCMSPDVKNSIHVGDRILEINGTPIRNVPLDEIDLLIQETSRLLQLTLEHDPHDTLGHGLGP

MPDZ_2, O75970 = target: T13, MPDZ_2, O75970

Row | Binder | pKd (DVL1, O14640) | pKd (O00560) | pKd (PDZD11, Q5EBL8) | pKd (SHANK2, Q9UPX8) | pKd (INTU, Q9ULD6) | pKd (Q9P227) | pKd (APBA3_2, O96018) | pKd (Q8TEW0) | pKd (Q6ZWJ1) | pKd (PDZD4, Q76G19) | pKd (O60759) | pKd (Q8IUC4) | pKd (PDZD2_6, O15018) | pKd (PARD6G, Q9BYG4) | pKd (O75970) | pKd (Q9ULJ8) | pKd (SYNPO2L, Q9H987) | pKd (PDZD7_2, Q9H5P4) | pKd (PDZD9, Q8IXQ8) | pKd (MAGI2_1, Q86UL8) | other results
1 | B1 | below the threshold | below the threshold | below the threshold | below the threshold | below the threshold | below the threshold | 4.47 | below the threshold | below the threshold | below the threshold | below the threshold | below the threshold | below the threshold | below the threshold | below the threshold | below the threshold | below the threshold | below the threshold | below the threshold | below the threshold | pKd (AHNAK2, Q8IVF2): below the threshold; pKd (NHERF1_1, O14745): below the threshold; pKd (Q9C0E4): below the threshold; pKd (LIMK1, P53667): 4.32; pKd (MPDZ_2, O75970): below the threshold
2 | B2 | 4.86 | below the threshold | below the threshold | below the threshold | below the threshold | below the threshold | below the threshold | below the threshold | below the threshold | below the threshold | below the threshold | below the threshold | below the threshold | below the threshold | below the threshold | below the threshold | below the threshold | below the threshold | below the threshold | below the threshold | pKd (AHNAK2, Q8IVF2): below the threshold; pKd (NHERF1_1, O14745): below the threshold; pKd (Q9C0E4): below the threshold; pKd (LIMK1, P53667): below the threshold; pKd (MPDZ_2, O75970): below the threshold
